This test addresses mouse TNFR1 on L929 cells (mouse). Description: cell-based or functional assay.

In turn, “anti-TNFR1 antibody MAB430 (R&D Systems)” came in with an ND50, modified L929 cytotoxicity assay without TNF-α (agonism) of 10 nM.

“anti-TNFR1 antibody AF-425-PB (R&D Systems)”: the ND50, modified L929 cytotoxicity assay without TNF-α (agonism) amounted to 0.1 nM.
